# In US20180312557A1, “Leg1 Protein, Leg1 Gene, and Uses and Drugs thereof” (ZHEJIANG UNIVERSITY, priority 2016, published 2018):
# B1: mLeg1-Re protein: modification-defective recombinant mLeg1 protein expressed in an Escherichia coli expression system (protein)
# chain: EVSDSSDPYPPLWEDSPEQLSDYMMEDGNYIINPWVYTDRMGMYRILLEETAMYFAKYGPENEQNLLWGLPLQFGWQYQSGRLADPTGMTDCGNELNESLCVSVDSWWADINYYLSVIPFLAAVDSGITGISPNQITILPPPKDQMRFCYNVSDCQSAVPGTMNRWRDFFQYMQLNSSDFDGLLNYLWEAHASSLDYPTSAFGDRYNFYSEKEANFEENWAIAVNYLAAARLPTTQNRTYSFQRGLPPRVLVDTDIAPFIPDFTPLQNEVLVSLKLLGDTDRNSGSLSLTLWENLMSTKLARTLFLKAFEEFLATSS
# modifications: left off: small tags and cut ends
# notes: modification-defective recombinant mLeg1 protein expressed in an Escherichia coli expression system
# Assays:
# [1] = mLeg1-Re protein in liver of mLeg1Δ/Δ mice after intragastric administration (co-immunoprecipitation); assay type: in vivo, mouse; conditions: two hours after the intragastric administration
# Description: (§1) In order to further verify this hypothesis, the inventors administered the mLeg1-Re protein to the mLeg1^Δ/Δ mice by intragastric administration, and detected, by the method of co-immunoprecipitation, whether the mLeg1-Re protein could reach the liver and bind to EGFR in the liver.
# EGFR = biological target: T1, EGFR (Mus musculus, UniProt Q01279); test: EGFR pulled down with mLeg1-Re from liver after intragastric administration (co-immunoprecipitation); assay type: in vivo; conditions: liver of mLeg1Δ/Δ mice, two hours after the intragastric administration
# T1 construct: from tissue; host or cells: liver of mLeg1^Δ/Δ mice
# Description: as §1
# [2] = Body weight increase of wild type mice on high-fat diet with intragastric mLeg1-Re; assay type: in vivo, mouse; conditions: 20 μg intragastric every day, one month
# Procedure: 23.4 10-weeks old wild type mice having the similar body weight (t1) were randomly divided into 3 groups with 3 to 4 mice in each group. The wild type mice were fed with high-fat diet and intragrastric administration with 20 μg of mLeg1-Re protein every day, which served as mLeg1-Re administration experimental group. Another group of wild type mice of the same age were fed with the same high-fat diet and intragrastric administration with the same amount of bovine serum albumin (BSA) every day, which served as BSA administration control group. The left group of wild type mice at the same age were fed with the same standard chow diet, which served as another control group. One month later, the body weight (t2) of these mice were measured, and the results were represented by increased body weight […]. The experiment was repeated twice, and the final body weight changes (i.e., increased body weight) were averaged.
# [3] = test system: Akt phosphorylation of the HepG2 cells; test: Akt phosphorylation of HepG2 cells incubated with recombinant mLeg1-Re, alone or with wild-type mLeg1; assay type: cell-based, human
# Procedure: 23.3 The extracted recombinant protein mLeg1-Re and the wild type mLeg1 protein were used to incubate the HepG2 cells, and then the Akt phosphorylation level of the HepG2 cell was detected. As to the details, reference can be made to step 18.2.2.
# The partially purified wild-type mLeg1 protein (50 ng) was mixed with excess mLeg1-Re protein (500 ng) for 10 minutes, and then used to incubate HepG2 cell for 10 minutes, and then the Akt phosphorylation level was detected in these cells. […] It is highly likely attributed to the fact that the mLeg1-Re protein is also capable of competitively binding to the EGFR, thereby blocking the ability of the wild-type mLeg1 to bind to the EGFR and activate downstream Akt.
molecule,measurement,setting,value
B1,mLeg1-Re protein in the liver,[1],could be detected in the liver
same,EGFR in the protein pulled down by the mLeg1 antibody,EGFR,significant EGFR protein level could be detected
same,body weight increase compared with BSA control group,[2],significantly lower
same,body weight increase compared with mice fed standard chow diet,[2],almost the same as that of the mice fed with standard chow diet
same,ability to induce Akt phosphorylation,[3]; HepG2 incubated with mLeg1-Re alone,lost the ability to induce Akt phosphorylation
same,ability of the mLeg1 protein to activate Akt,"[3]; HepG2 incubated with mLeg1-Re for 10 minutes first, then mLeg1 added",completely inhibited
same,inhibition of mLeg1-induced Akt phosphorylation,"[3]; mLeg1 (50 ng) mixed with excess mLeg1-Re (500 ng) for 10 minutes, then HepG2 10 minutes",cannot inhibit the functions of the mLeg1 protein
